Source: the Human Domainome abundance scans (Beltran et al. 2025)

B1: Intersectin-2, residues 1129 to 1183; numbered along this chain, Q9NZM3 (parent)
chain: VCQVIAMYDYAANNEDELSFSKGQLINVMNKDDPDWWQGEINGVTGLFPSNYVKM

Variants of: B1
Assay: abundance fitness (aPCA) (normalised: wild type 0, dead -1); higher = more abundant; growth selection in yeast, the domain comes from the species named
Conditions: Homo sapiens

Abundance fitness: each site, then its substitutions
C2: G -0.099; W -0.122; S -0.006; Q -0.107; D -0.041
F48: N -1.17; D -0.806; V -0.027; W -1; Q -0.778; M -0.092; P -0.718; L 0; E -0.834
D35: Q -0.099; N -0.032; S -0.035; P -0.39
T45: D -0.1; M -0.145; W -0.153; N -0.062; I -0.103; K -0.03
V28: A -0.371; W -0.963; S -0.94; P -0.882; E -0.996; M -0.155; N -1.01; C -0.077; R -0.718
M29: K -0.075; N -0.187; R -0.014; I -0.036; H -0.06; S -0.039
W36: G -0.626; C -0.003; N -0.023; S -0.1; R -0.019; D -0.323; Y -0.054
S21: N -0.006; R -0.02; T -0.028; E -0.084; H 0.082; A 0.001
D32: F -0.205; P 0.084; L -0.11; K -0.007; M -0.043; T -0.075
N14: F -0.08; S 0.014; H 0.02; I -0.092; W -0.203; M -0.016
E17: G -0.039; T -0.158; L -0.124; Y 0.064; F -0.11; N -0.271; M -0.037; Q -0.042; A -0.174; I -0.215
Y52: R -0.019; T -0.065; E -0.192; P -0.544; I -0.023; N -0.107; M -0.002; S -0.066
G23: W -0.201; I -0.866; H 0.023; S -0.07; Y -0.047; V -0.903; R -0.195
M55: K -0.233; Q -0.09; V -0.103
V1: A -0.27; T 0.107; S -0.21; M -0.178; P -0.652; F 0.04
N30: K -0.001; Q 0.019; V -0.045; S -0.028; M -0.025; C 0.005; R -0.019; L -0.021
G39: F -0.854; Y -0.878; D -0.726; H -0.896; C -0.995; A -0.699; W -1.18
Y8: W -0.052; L -0.005; T -0.122; R 0.012; E -0.002; F 0.09; P -0.787; M -0.011; H -0.162
P49: T -0.746; K -0.017; R 0.017; L -0.143; E -0.442; D -0.482
D16: L -0.034; H -0.101; V -0.082; I 0.109; C -0.014
L25: G -0.035; E 0.057; Q -0.089; K -0.064; H -0.054; V -0.011
K54: Q -0.049; M -0.154; G -0.172; F -0.148; E -0.032; R 0.099; V -0.161
Y10: M -0.256; T -0.865; F -0.084; P -0.913; H -0.124; V -0.455
Q24: C -0.151; Y -0.153; V -0.078; R -0.128; D 0.022
D9: Q -0.133; I -0.594; W -0.383; T -0.084; N -0.039
N13: Q 0.051; E -0.017; G 0.031; S 0.014; L 0.01; V -0.003; D -0.033
K31: Y -0.103; D -0.044; G -0.031; C 0.138; A 0.173; H -0.148
V44: C -0.023; E -0.108; W -0.151; Y -0.101
Q38: K 0.005; D -0.024; I 0.105; M -0.074
V4: A -0.027; N -0.688; R -0.458; H -0.205; F -0.004; K -0.62; T -0.079; Q -0.349; D -0.511; Y 0.032; G -0.041
P34: H -0.194; W -0.161; K 0.055; I -0.071; G -0.028; A 0.005; S -0.013; E 0.03; C -0.195
F20: C -0.596; K -0.921; S -0.871; Q -0.844
E15: V -0.014; R -0.037; K -0.048; G -0.006; H 0; F -0.12; T 0.033
I41: S -0.038; L -0.012; D -0.624
L47: T -0.014; A -0.007; C -0.185; P -0.257; N -0.086; M -0.128; D -0.142
L18: A -0.715; K -0.647; C -0.378; Y -0.966; Q -0.704
K22: V -0.074; Q 0.033; I -0.063; P -0.154; D -0.22; E -0.036; W -0.362
N27: Q 0.012; R -0.037; I -0.015; T -0.043; F -0.112; K -0.052; S -0.05
A12: E -0.172; P -0.144; K -0.012; Q -0.046; I -0.469
N42: P -0.473; W -0.148; V -0.1; S -0.021; A -0.013; G -0.042; E 0; C 0.014; Q -0.084; T -0.01; Y -0.082; H 0
G43: I -0.865; R -0.069; E -0.032; A -0.044; K 0.029; W -0.404; D -0.044; L -0.175
E40: K -0.037; W -0.15
M7: K -0.139; Q -0.049; N -0.088
Q3: D -0.19; F 0.027; K 0.002; A -0.07; S 0.012; W -0.076; Y -0.029
A6: H -0.923; Y -0.927; T 0.026; Q -0.966; V -0.576
A11: H 0.042; V -0.072; E 0.025; Y -0.111; G -0.03; R -0.01; Q -0.003
G46: E -0.973; N -0.483; T -0.788; P -1.01
W37: C -0.516; S -0.805; M -0.283; Q -0.699; F -0.156; P -0.582; N -0.771; V -0.78
D33: F -0.24; M -0.12
S50: W -0.399; A -0.046; N -0.1; D -0.98
I26: V -0.089; T -0.88; E -0.789; H -1.07; K -0.972; N -0.719; M -0.232
I5: Q -0.085; V -0.015; K -0.173; F -0.022; W -0.056; G -0.457
S19: K -0.163; C -0.066; P -0.166
V53: G -0.116; K -0.902; Q -0.564; P -0.905; T 0.03
N51: E -0.154; A -0.075; Y -0.067
